Measurements published in patent US20130259878A1 (OXFORD BIOTHERAPEUTICS, published 2013).

Key:
[1] = molecular target: T1, CDH17 human full length Flag tagged antigen, transfected into HEK293 cells (human, UniProt Q12864 23-832); assay: flow cytometry on HEK293 cells transiently transfected with Flag tagged human CDH17; panel 'CDH17 Human Flag Tag analyzed with CDH17_A4_4K'
T1 construct: The Flag tag may sit at either end; also called Flag tagged Human CDH17; human CDH17; not shown: Flag tag
T1 sequence: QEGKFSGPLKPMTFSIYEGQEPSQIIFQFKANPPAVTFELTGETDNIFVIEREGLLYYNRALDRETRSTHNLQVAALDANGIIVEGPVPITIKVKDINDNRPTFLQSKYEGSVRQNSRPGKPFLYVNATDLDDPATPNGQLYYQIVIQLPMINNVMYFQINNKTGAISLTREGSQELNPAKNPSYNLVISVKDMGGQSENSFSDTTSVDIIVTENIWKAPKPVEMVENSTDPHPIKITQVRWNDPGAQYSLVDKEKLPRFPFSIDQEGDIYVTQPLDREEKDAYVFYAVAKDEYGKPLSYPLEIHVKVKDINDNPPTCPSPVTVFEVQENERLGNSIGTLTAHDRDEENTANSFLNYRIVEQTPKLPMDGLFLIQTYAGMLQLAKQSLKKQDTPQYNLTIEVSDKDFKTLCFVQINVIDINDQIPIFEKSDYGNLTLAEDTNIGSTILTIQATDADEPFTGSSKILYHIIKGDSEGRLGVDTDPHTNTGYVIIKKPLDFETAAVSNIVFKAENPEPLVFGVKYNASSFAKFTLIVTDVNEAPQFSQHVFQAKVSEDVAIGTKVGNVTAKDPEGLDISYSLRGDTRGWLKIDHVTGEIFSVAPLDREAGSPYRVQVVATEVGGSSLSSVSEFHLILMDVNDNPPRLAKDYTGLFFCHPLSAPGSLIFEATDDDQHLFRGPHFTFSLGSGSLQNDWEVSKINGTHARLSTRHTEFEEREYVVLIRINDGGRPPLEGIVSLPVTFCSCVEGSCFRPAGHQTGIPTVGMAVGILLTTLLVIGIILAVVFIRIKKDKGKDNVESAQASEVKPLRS
Protocol: (§1) The humanized monoclonal antibodies, CDH17_A4_{—}4K and CDH17_A4_{—}4R were incubated with cells on ice for 1 hour and then washed twice with cold FACS buffer and re-suspended in 100 ul FACS buffer per well. A secondary antibody was added at 1 ug/ml along with goat anti-mouse H+L PE (Southern Biotech) for Anti-flag and mouse isotype control and goat anti-human H+L PE (Southern Biotech) for human isotype control. The plate was then incubated for 1 hour after which was washed three times with FACS buffer and re-suspended 150 ul FACS buffer per well. 50 ul of 4% paraformaldehyde was then added to fix the cells before storing the plate overnight at 4 degrees C. The sample were then run on Guava EasyCyte Flow Cytometer HT plus and the data analyzed using the Guava Cytosoft software suite.

[2] = molecular target: T1, CDH17 human full length Flag tagged …; assay: flow cytometry on HEK293 cells transiently transfected with Flag tagged human CDH17; panel 'CDH17 Human Flag Tag analyzed with CDH17_A4_4R'
Protocol: as §1

[3] = molecular target: T2, human Cadherin-17 (CDH17), cell-surface, endogenous on human cancer cells (human, UniProt Q12864 23-832); assay: flow cytometry on LoVo cells, antibody titration
T2 construct: Endogenous CDH17 on LoVo, LS174T and SNU-1 cells and in human tumor tissue sections; also called liver-intestine cadherin; LI-cadherin
T2 sequence: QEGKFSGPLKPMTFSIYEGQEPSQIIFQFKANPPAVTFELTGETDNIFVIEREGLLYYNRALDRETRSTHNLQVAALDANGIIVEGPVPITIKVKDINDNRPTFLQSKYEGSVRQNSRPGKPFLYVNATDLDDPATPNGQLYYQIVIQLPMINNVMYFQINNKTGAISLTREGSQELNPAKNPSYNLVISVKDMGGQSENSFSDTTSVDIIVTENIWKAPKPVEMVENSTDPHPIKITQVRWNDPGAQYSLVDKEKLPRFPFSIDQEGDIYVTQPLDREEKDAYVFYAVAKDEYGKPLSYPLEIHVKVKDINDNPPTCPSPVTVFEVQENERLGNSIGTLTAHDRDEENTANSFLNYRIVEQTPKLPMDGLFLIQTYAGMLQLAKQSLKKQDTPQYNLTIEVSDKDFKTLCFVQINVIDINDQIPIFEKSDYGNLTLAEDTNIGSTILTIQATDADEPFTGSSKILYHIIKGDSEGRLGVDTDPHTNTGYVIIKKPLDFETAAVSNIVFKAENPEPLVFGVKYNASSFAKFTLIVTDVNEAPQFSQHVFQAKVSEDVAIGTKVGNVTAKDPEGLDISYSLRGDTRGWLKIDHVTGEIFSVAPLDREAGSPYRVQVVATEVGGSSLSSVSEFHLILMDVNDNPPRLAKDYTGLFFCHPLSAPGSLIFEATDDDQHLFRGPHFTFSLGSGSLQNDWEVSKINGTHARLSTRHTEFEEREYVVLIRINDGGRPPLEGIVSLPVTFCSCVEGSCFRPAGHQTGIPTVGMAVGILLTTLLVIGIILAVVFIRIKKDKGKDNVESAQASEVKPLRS

B1: humanized CDH17_A4-4K monoclonal antibody (antibody, V domains shown)
VH: QVQLVQSGAEVKKPGASVKVSCKASGYTLTDHTIHWMRQAPGQRLEWIGYIYPRDGITGYNEKFKGKATLTADTSASTAYMELSSLRSEDTAVYYCARWGYSYRNYAYYYDYWGQGTLVTVSS
VL: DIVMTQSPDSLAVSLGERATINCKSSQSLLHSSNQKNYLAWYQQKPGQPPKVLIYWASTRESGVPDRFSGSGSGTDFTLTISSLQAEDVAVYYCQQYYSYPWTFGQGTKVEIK
notes: It was detected with an anti-human IgG secondary in the HumZAP assay
Q: How did the EC50 [1] turn out when B1 was run?
A: 0.14 nM

B2: humanized CDH17_A4-4R monoclonal antibody (antibody, V domains shown)
VH: QVQLVQSGAEVKKPGASVKVSCKASGYTLTDHTIHWMRQAPGQRLEWIGYIYPRDGITGYNERFRGKATLTADTSASTAYMELSSLRSEDTAVYYCARWGYSYRNYAYYYDYWGQGTLVTVSS
VL: DIVMTQSPDSLAVSLGERATINCRSSQSLLHSSNQRNYLAWYQQKPGQPPKVLIYWASTRESGVPDRFSGSGSGTDFTLTISSLQAEDVAVYYCQQYYSYPWTFGQGTKVEIK
notes: as for B1
Q: Which EC50 [2] does the source give for B2 here?
A: 0.13 nM

B3: CDH17_A4 monoclonal antibody (Fab, V domains shown)
VH: EVQLQQSVAELVKPGASVKMSCKVSGYTLTDHTIHWMKQRPEQGLEWIGYIYPRDGITGYNEKFKGKATLTADTSSSTAYMQLNSLTSEDSAVYFCARWGYSYRNYAYYYDYWGQGTTLTVSS
VL: DIVMSQSPSSLAVSVGEKVTMSCKSSQSLLHSSNQKNYLAWYQQKPGQSPKVLIYWASTRESGVPDRFTGSGSGTDFTLTITSVKSEDLAVYYCQQYYSYPWTFGGGTRLEIK
notes: also called CHD17_A4
Q: Does B3 bind [3]?
A: binds
